Measured values taken from US8840891 (RSR, dated 2014).
Read-outs that look alike come from different tables or passages of the source.

Experiments:
Experiment in all cases: cell-based or functional assay
[1] = biological target: human TSHR Asp203Ala, expressed in CHO cells (human) (UniProt P16473)
[2] = biological target: TSHR with Lys58 mutated to Alanine (human) (UniProt P16473)
[3] = biological target: wild type human TSHR (human) (UniProt P16473)
[4] = biological target: TSHR with Asp151 mutated to Arginine (human) (UniProt P16473)
[5] = biological target: wild type human TSHR (human) (UniProt P16473); remark: listed apart in the source
[6] = biological target: TSHR with Asp151 mutated to Alanine (human) (UniProt P16473)

Sequence of 5C9 IgG (antibody) (VH): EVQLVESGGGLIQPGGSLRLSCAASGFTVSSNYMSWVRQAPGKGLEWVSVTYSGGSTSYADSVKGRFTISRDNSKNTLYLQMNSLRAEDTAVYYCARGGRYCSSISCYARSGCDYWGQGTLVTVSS
Sequence of 5C9 IgG (antibody) (VL): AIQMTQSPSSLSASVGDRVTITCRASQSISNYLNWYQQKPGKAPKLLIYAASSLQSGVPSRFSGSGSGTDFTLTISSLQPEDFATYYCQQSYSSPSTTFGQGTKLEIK

**Q.** For 5C9 IgG (antibody), which % inhibition of TSH stimulated cyclic AMP level; pTSH 3 ng/mL + 1 µg/mL 5C9 [1] is on record?
**A.** The % inhibition of TSH stimulated cyclic AMP level; pTSH 3 ng/mL + 1 µg/mL 5C9 was 4%.

**Q.** And the cyclic AMP concentration; pTSH 3 ng/mL + 1 µg/mL 5C9 (mean of duplicate samples) (fmol/cell well) [1]?
**A.** The cyclic AMP concentration; pTSH 3 ng/mL + 1 µg/mL 5C9 (mean of duplicate samples) (fmol/cell well) was 9400.

**Q.** What about the Mutated/wild type (%); 5C9 0.01 µg/mL + TSH [2] of the same substance?
**A.** The Mutated/wild type (%); 5C9 0.01 µg/mL + TSH was 108%.

**Q.** What about the Mutated/wild type (%); 5C9 0.1 µg/mL + TSH [2] of the same substance?
**A.** The Mutated/wild type (%); 5C9 0.1 µg/mL + TSH was 104%.

**Q.** And the Mutated/wild type (%); 5C9 1.0 µg/mL + TSH [2]?
**A.** Its Mutated/wild type (%); 5C9 1.0 µg/mL + TSH is 195%.

**Q.** What about the Mutated/wild type (%); 5C9 10 µg/mL + TSH [2] of the same substance?
**A.** The Mutated/wild type (%); 5C9 10 µg/mL + TSH was 272%.

**Q.** And the Mutated/wild type (%); 5C9 100 µg/mL + TSH [2]?
**A.** The Mutated/wild type (%); 5C9 100 µg/mL + TSH was 190%.

**Q.** And the cyclic AMP; 5C9 0.01 µg/mL + TSH (fmol/cell well) [2]?
**A.** Its cyclic AMP; 5C9 0.01 µg/mL + TSH (fmol/cell well) is 7910.

**Q.** What about the cyclic AMP; 5C9 0.1 µg/mL + TSH (fmol/cell well) [2] of the same substance?
**A.** Its cyclic AMP; 5C9 0.1 µg/mL + TSH (fmol/cell well) is 4820.

**Q.** And the cyclic AMP; 5C9 1.0 µg/mL + TSH (fmol/cell well) [2]?
**A.** Its cyclic AMP; 5C9 1.0 µg/mL + TSH (fmol/cell well) is 1790.

**Q.** And the cyclic AMP; 5C9 10 µg/mL + TSH (fmol/cell well) [2]?
**A.** Its cyclic AMP; 5C9 10 µg/mL + TSH (fmol/cell well) is 955.

**Q.** And the cyclic AMP; 5C9 100 µg/mL + TSH (fmol/cell well) [2]?
**A.** The cyclic AMP; 5C9 100 µg/mL + TSH (fmol/cell well) was 1000.

**Q.** What about the cyclic AMP; 5C9 100 µg/mL only (fmol/cell well) [2] of the same substance?
**A.** Its cyclic AMP; 5C9 100 µg/mL only (fmol/cell well) is < 25.

**Q.** What about the cyclic AMP; 5C9 0.01 µg/mL + TSH (fmol/cell well) [3] of the same substance?
**A.** Its cyclic AMP; 5C9 0.01 µg/mL + TSH (fmol/cell well) is 12400.

**Q.** And the cyclic AMP; 5C9 0.1 µg/mL + TSH (fmol/cell well) [3]?
**A.** The cyclic AMP; 5C9 0.1 µg/mL + TSH (fmol/cell well) was 6690.

**Q.** What about the cyclic AMP; 5C9 1.0 µg/mL + TSH (fmol/cell well) [3] of the same substance?
**A.** Its cyclic AMP; 5C9 1.0 µg/mL + TSH (fmol/cell well) is 2750.

**Q.** What about the cyclic AMP; 5C9 10 µg/mL + TSH (fmol/cell well) [3] of the same substance?
**A.** Its cyclic AMP; 5C9 10 µg/mL + TSH (fmol/cell well) is 1220.

**Q.** And the cyclic AMP; 5C9 100 µg/mL + TSH (fmol/cell well) [3]?
**A.** The cyclic AMP; 5C9 100 µg/mL + TSH (fmol/cell well) was 1570.

**Q.** And the cyclic AMP; 5C9 100 µg/mL only (fmol/cell well) [3]?
**A.** Its cyclic AMP; 5C9 100 µg/mL only (fmol/cell well) is 260.

**Q.** What about the Mutated/wild type (%); 5C9 0.01 µg/mL + TSH [4] of the same substance?
**A.** Its Mutated/wild type (%); 5C9 0.01 µg/mL + TSH is 148%.

**Q.** And the Mutated/wild type (%); 5C9 0.1 µg/mL + TSH [4]?
**A.** The Mutated/wild type (%); 5C9 0.1 µg/mL + TSH was 158%.

**Q.** What about the Mutated/wild type (%); 5C9 1.0 µg/mL + TSH [4] of the same substance?
**A.** Its Mutated/wild type (%); 5C9 1.0 µg/mL + TSH is 94%.

**Q.** What about the Mutated/wild type (%); 5C9 10 µg/mL + TSH [4] of the same substance?
**A.** Its Mutated/wild type (%); 5C9 10 µg/mL + TSH is 132%.

**Q.** What about the Mutated/wild type (%); 5C9 100 µg/mL + TSH [4] of the same substance?
**A.** Its Mutated/wild type (%); 5C9 100 µg/mL + TSH is 148%.

**Q.** What about the Mutated/wild type (%); 5C9 100 µg/mL only [4] of the same substance?
**A.** Its Mutated/wild type (%); 5C9 100 µg/mL only is 157%.

**Q.** What about the cyclic AMP; 5C9 0.01 µg/mL + TSH (fmol/cell well) [4] of the same substance?
**A.** Its cyclic AMP; 5C9 0.01 µg/mL + TSH (fmol/cell well) is 18300.

**Q.** What about the cyclic AMP; 5C9 0.1 µg/mL + TSH (fmol/cell well) [4] of the same substance?
**A.** Its cyclic AMP; 5C9 0.1 µg/mL + TSH (fmol/cell well) is 10600.

**Q.** What about the cyclic AMP; 5C9 1.0 µg/mL + TSH (fmol/cell well) [4] of the same substance?
**A.** The cyclic AMP; 5C9 1.0 µg/mL + TSH (fmol/cell well) was 2590.

**Q.** And the cyclic AMP; 5C9 10 µg/mL + TSH (fmol/cell well) [4]?
**A.** Its cyclic AMP; 5C9 10 µg/mL + TSH (fmol/cell well) is 1610.

**Q.** And the cyclic AMP; 5C9 100 µg/mL + TSH (fmol/cell well) [4]?
**A.** Its cyclic AMP; 5C9 100 µg/mL + TSH (fmol/cell well) is 2330.

**Q.** What about the cyclic AMP; 5C9 100 µg/mL only (fmol/cell well) [4] of the same substance?
**A.** Its cyclic AMP; 5C9 100 µg/mL only (fmol/cell well) is 409.

**Q.** What about the cyclic AMP; 5C9 0.01 µg/mL + TSH (fmol/cell well) [5] of the same substance?
**A.** The cyclic AMP; 5C9 0.01 µg/mL + TSH (fmol/cell well) was 11200.

**Q.** What about the cyclic AMP; 5C9 0.1 µg/mL + TSH (fmol/cell well) [5] of the same substance?
**A.** The cyclic AMP; 5C9 0.1 µg/mL + TSH (fmol/cell well) was 6950.

**Q.** And the cyclic AMP; 5C9 1.0 µg/mL + TSH (fmol/cell well) [5]?
**A.** Its cyclic AMP; 5C9 1.0 µg/mL + TSH (fmol/cell well) is 1390.

**Q.** What about the cyclic AMP; 5C9 10 µg/mL + TSH (fmol/cell well) [5] of the same substance?
**A.** Its cyclic AMP; 5C9 10 µg/mL + TSH (fmol/cell well) is 380.

**Q.** What about the cyclic AMP; 5C9 100 µg/mL + TSH (fmol/cell well) [5] of the same substance?
**A.** Its cyclic AMP; 5C9 100 µg/mL + TSH (fmol/cell well) is 945.

**Q.** What about the cyclic AMP; 5C9 100 µg/mL only (fmol/cell well) [5] of the same substance?
**A.** Its cyclic AMP; 5C9 100 µg/mL only (fmol/cell well) is 176.

**Q.** And the Mutated/wild type (%); 5C9 0.01 µg/mL + TSH [6]?
**A.** The Mutated/wild type (%); 5C9 0.01 µg/mL + TSH was 112%.

**Q.** What about the Mutated/wild type (%); 5C9 0.1 µg/mL + TSH [6] of the same substance?
**A.** Its Mutated/wild type (%); 5C9 0.1 µg/mL + TSH is 143%.

**Q.** And the Mutated/wild type (%); 5C9 1.0 µg/mL + TSH [6]?
**A.** The Mutated/wild type (%); 5C9 1.0 µg/mL + TSH was 465%.

**Q.** What about the Mutated/wild type (%); 5C9 10 µg/mL + TSH [6] of the same substance?
**A.** The Mutated/wild type (%); 5C9 10 µg/mL + TSH was 599%.

**Q.** And the Mutated/wild type (%); 5C9 100 µg/mL + TSH [6]?
**A.** The Mutated/wild type (%); 5C9 100 µg/mL + TSH was 162%.

**Q.** What about the Mutated/wild type (%); 5C9 100 µg/mL only [6] of the same substance?
**A.** Its Mutated/wild type (%); 5C9 100 µg/mL only is 224%.

**Q.** What about the cyclic AMP; 5C9 0.01 µg/mL + TSH (fmol/cell well) [6] of the same substance?
**A.** The cyclic AMP; 5C9 0.01 µg/mL + TSH (fmol/cell well) was 12600.

**Q.** What about the cyclic AMP; 5C9 0.1 µg/mL + TSH (fmol/cell well) [6] of the same substance?
**A.** Its cyclic AMP; 5C9 0.1 µg/mL + TSH (fmol/cell well) is 9960.

**Q.** And the cyclic AMP; 5C9 1.0 µg/mL + TSH (fmol/cell well) [6]?
**A.** The cyclic AMP; 5C9 1.0 µg/mL + TSH (fmol/cell well) was 6450.

**Q.** What about the cyclic AMP; 5C9 10 µg/mL + TSH (fmol/cell well) [6] of the same substance?
**A.** The cyclic AMP; 5C9 10 µg/mL + TSH (fmol/cell well) was 2280.

**Q.** And the cyclic AMP; 5C9 100 µg/mL + TSH (fmol/cell well) [6]?
**A.** Its cyclic AMP; 5C9 100 µg/mL + TSH (fmol/cell well) is 1540.

**Q.** And the cyclic AMP; 5C9 100 µg/mL only (fmol/cell well) [6]?
**A.** The cyclic AMP; 5C9 100 µg/mL only (fmol/cell well) was 395.
